*1 amine or outer side, *2 acyl side, *3 side chain or, on linkers, in order; H or OH if unused. Where no end group is shown, it is not given here. Side-chain parts run from the residue outwards. [ ]: non-standard residue; d: D form. The star is where a group is joined. C16 diacid = O=C(O)CCCCCCCCCCCCCCC(=O)*; γGlu = O=C(O)[C@H](CCC(=O)[*:2])N[*:1]; AEEA = NCCOCCOCC(=O)O; Aib = CC(C)(N)C(=O)O
T1: human GIP receptor (human, UniProt P48546 22-466)
T1 sequence (looked up): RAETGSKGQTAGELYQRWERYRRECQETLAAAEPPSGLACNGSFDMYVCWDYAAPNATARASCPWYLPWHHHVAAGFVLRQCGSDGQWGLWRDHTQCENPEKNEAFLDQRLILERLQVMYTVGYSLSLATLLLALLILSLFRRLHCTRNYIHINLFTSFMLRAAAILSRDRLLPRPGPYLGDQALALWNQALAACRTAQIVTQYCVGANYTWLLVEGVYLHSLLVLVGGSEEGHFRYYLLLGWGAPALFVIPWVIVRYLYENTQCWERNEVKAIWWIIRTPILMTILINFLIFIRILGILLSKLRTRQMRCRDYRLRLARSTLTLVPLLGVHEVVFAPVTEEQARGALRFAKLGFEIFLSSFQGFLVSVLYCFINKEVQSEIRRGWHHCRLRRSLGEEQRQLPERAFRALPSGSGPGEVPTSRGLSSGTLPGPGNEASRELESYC

B1: Parent compound No. 4 (peptide)
peptide: Y[Aib]EGTFTSDYSILLEKQAAREFIEWLLAGGPSSGAPPPS-OH
modifications: not fully specified (residue 16)
B2: Parent compound No. 3 (peptide)
peptide: Y[Aib]EGTFTSDYSILLEEQAAREFIEWLLAGGPSKGAPPPS-OH
modifications: not fully specified (residue 33)
B3: Parent compound No. 1 (peptide)
peptide: Y[Aib]EGTFTSDYSILLEEQAAREFIEWLLAGGPSK([AEEA-AEEA-γGlu-C16 diacid])GAPPPS-OH
modifications: N-terminus assumed
SMILES: CC[C@H](C)[C@H](NC(=O)[C@H](Cc1ccccc1)NC(=O)[C@H](CCC(=O)O)NC(=O)[C@H](CCCNC(=N)N)NC(=O)[C@H](C)NC(=O)[C@H](C)NC(=O)[C@H](CCC(N)=O)NC(=O)[C@H](CCC(=O)O)NC(=O)[C@H](CCC(=O)O)NC(=O)[C@H](CC(C)C)NC(=O)[C@H](CC(C)C)NC(=O)[C@@H](NC(=O)[C@H](CO)NC(=O)[C@H](Cc1ccc(O)cc1)NC(=O)[C@H](CC(=O)O)NC(=O)[C@H](CO)NC(=O)[C@@H](NC(=O)[C@H](Cc1ccccc1)NC(=O)[C@@H](NC(=O)CNC(=O)[C@H](CCC(=O)O)NC(=O)C(C)(C)NC(=O)[C@@H](N)Cc1ccc(O)cc1)[C@@H](C)O)[C@@H](C)O)[C@@H](C)CC)C(=O)N[C@@H](CCC(=O)O)C(=O)N[C@@H](Cc1c[nH]c2ccccc12)C(=O)N[C@@H](CC(C)C)C(=O)N[C@@H](CC(C)C)C(=O)N[C@@H](C)C(=O)NCC(=O)NCC(=O)N1CCC[C@H]1C(=O)N[C@@H](CO)C(=O)N[C@@H](CCCCNC(=O)COCCOCCNC(=O)COCCOCCNC(=O)CC[C@H](NC(=O)CCCCCCCCCCCCCCC(=O)O)C(=O)O)C(=O)NCC(=O)N[C@@H](C)C(=O)N1CCC[C@H]1C(=O)N1CCC[C@H]1C(=O)N1CCC[C@H]1C(=O)N[C@@H](CO)C(=O)O
B4: Parent compound No. 2 (peptide)
peptide: Y[Aib]EGTFTSDYSILLEEQAAREFIEWLLAGGPSKGAPPPS-OH
modifications: not fully specified (residue 33)

The molecules below were run against human GLP-1 receptor (human, UniProt P43220 24-463) (assay: cell-based or functional assay).

| Molecule | hGLP-1R, CRE Luc 0% HSA EC50 (pM) | hGLP-1R, CRE Luc 1% HSA EC50 (pM) |
| --- | --- | --- |
| B1 | 4.2 pM | 202 pM |
| B2 | 4 pM | 360 pM |
| B3 | 2.1 pM | 154 pM |
| B4 | 1.5 pM | 111 pM |

These molecules were tested against T1, human GIP receptor (assay: cell-based or functional assay).

| Molecule | hGIPR, CRE Luc 0% HSA EC50 (pM) | hGIPR, CRE Luc 1% HSA EC50 (pM) |
| --- | --- | --- |
| human GIP (from UniProt P09681 52-93) (ligand) | 11.3 pM | 6.4 pM |
| B1 | 4.7 pM | 188 pM |
| B2 | 5.6 pM | 444 pM |
| B3 | 3.1 pM | 156 pM |
| B4 | 1.8 pM | 97 pM |
